Experimental data from the supplement of paper PMC7125110.
± gives the standard error. This sample holds only a part of the variants without activity.

B1: glmS ribozyme (parent)
chain: AUAAAAGCGCCAGAACUACAGAAAUGUAGUUGACGAGGAGGAGGUUUAUCGAAUUUUCGGCGGAUGCCUCCAAA

Columns and labels:
Conditions in all cases: with glucosamine-6-phosphate
glucosamine-6-phosphate [1] = variants of: B1; test: self-cleavage kobs at 640 uM GlcN6P; higher = faster cleavage; RNA array
Method in brief: (§1)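 kobs was derived by fitting per-tile medians to one- or two-exponential decays after normalising signals to baseline and to non-cleaving reference variants. Those signals came from barcoded ribozyme variants transcribed in situ by E. coli RNA polymerase on sequenced MiSeq chips, followed through a hybridised Cy3 probe at 37 °C and imaged over ~14 h. Glucosamine-6-phosphate (40 μM to 10 mM) in HEPES/KCl/Mg(OAc)2 buffer was flowed in. Weighted Michaelis–Menten fits across concentrations then gave kcat and KM.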

glucosamine-6-phosphate [2] = variants of: B1; test: self-cleavage kobs at 2500 uM GlcN6P; higher = faster cleavage; RNA array
Method in brief: as §1

glucosamine-6-phosphate [3] = variants of: B1; test: self-cleavage kobs at 10000 uM GlcN6P; higher = faster cleavage; RNA array
Method in brief: as §1

| Variant | self-cleavage kobs at 640 uM GlcN6P (glucosamine-6-phosphate [1]) [s⁻¹] | self-cleavage kobs at 2500 uM GlcN6P (glucosamine-6-phosphate [2]) [s⁻¹] | self-cleavage kobs at 10000 uM GlcN6P (glucosamine-6-phosphate [3]) [s⁻¹] |
| --- | --- | --- | --- |
| AUAAAAGCGCGAGAACUACAGAAAUGUAGUUGACGAGGUGGAGGCUUAAUGAAUUUUCGGCCGAGGCCUCCAAA | < 1e-05 |  |  |
| AUAAAAGCGCGAGAACUACAGAAAUGUAGUGGACGAGGCGCAGGUUUAUCGAAUUUUCGGCGGAUGCCUCCAAA | < 1e-05 | < 1e-05 |  |
| AUAAAAGCGCGAGAACUACAGAAAUGUAUUUGACGAGGAGGCGGUUUAUCGAAUUUUCGGCGGAUGCCUCCAAA | < 1e-05 | < 1e-05 |  |
| AUAAAAGCGCCCGCACUACAGAAAUGUAGUUAACGAGGAGGAGCUUUAUCGAAUUUUCGGCGGAUGCCUGCAAA | < 1e-05 | < 1e-05 |  |
| AUAAAAGCGCUAGAACUACAGAAAUGUAGUUGACGAGGAGGAGGUUUAUCGAAUUUUAGGCGGCUGCCUCCAAA | < 1e-05 |  |  |
| AUAAAAGCGCGAGAACUACAGAAAUGUAGUUGACGAGGAGGAGGUUUAUCGAAUUUUCCGCGGAUGGCUCCAAA | 0.000111 ± 4e-05 | 0.00023 ± 6.2e-05 |  |
| AUAAAAGCGCGAGAACUACAGAAAUGUAGUUGACGAGAAGGACGUUUAUCGAAUUUUCGGCGGAUGCCUCCAAA | < 1e-05 | < 1e-05 |  |
| AUAAAAGCGCGAGAACUACAGAAAUGUAGUUGACGAGGAGGUGGUUUAUCUAAUUUUCGGCCGAUGCCUCCAAA | < 1e-05 | < 1e-05 |  |
| AUAAAAGCGCUAGAACUACAGAAAUGUAGUUGACGAGGAGGAGGUUUAUCGAAUUUUCGGCGGAUGCGUCCAAA | 0.000314 ± 0.00012 |  |  |
| AUAAAAGCGCGAUAACUACAGAAAUGUAAUUGACGAGGAGGAGGUUUAUCGAAUUUUCGGCGGAUACCUCCAAA | < 1e-05 |  |  |
| AUAAAAGCGCUACAACUACAGAAAUGUAGUUGACGACGAGGAGGUUUAUCGAAUUUUCGGCGGAUGCCUCCAAA | < 1e-05 | < 1e-05 | < 1e-05 |
| AUAAAAGCGCGAGAACUACAGAAAUGUAGUUGACGAGGAGGAGGUUUAUCGAAUUUUCGGCGGAUGCCUACAAA | 3.62e-05 ± 1.5e-05 |  |  |
| AUAAAAGCGCUAGAAUUACAGAAAUGUAGUUGACGAGGAGGAGGUUUAUCGAAUUUUCGGCGGUUGCCUCGAAA | 0.0021 ± 0.00087 |  |  |
| AUAAAAGCGCUAGAAUUACAGAAAUGUAGUUGACGAGGAGGAGGAUUAUCGAAUUUUCGGCGGAUGCCUCCAAA | 0.000806 ± 0.00021 | 0.00127 ± 0.00037 |  |
| AUAAAAGCGCGAGAACUACAGAAAUGUAGUGGACCAGGAGGAGGUUUAUCGAAUUUUCGGCGGAUGCCUCUAAA | < 1e-05 | < 1e-05 |  |
| AUAAAAGCGCCCGUACUACAGAAAUGUAGAUGACGAGGAGGAGGUUUAUCGAAUUUUCGGCGGAUGCCGCCAAA | 9e-05 ± 3.5e-05 |  |  |
| AUAAAAGCGCUAGAACUACAGAAAUGUAGUUGACGAGGAGGAGGUUUAUCGAAUUUUCGGCGGAGGGCUCCAAA | 0.000877 ± 0.00023 |  | 0.000136 ± 2.6e-05 |
| AUAAAAGCGCUAGAACUACAGAAAUGUAGUUGACGAGGAGGAGGUUUAUCGAAGUUUCAGCGGAUGCCUCCAAA | 0.00194 ± 0.00054 | 0.00627 ± 0.002 |  |
| AUAAAAGCGCCCGAACUACAGAAAUGUAGUUGGCGAUGAGGAGGUUUAUCGAAUUUUCGGCGGAUGCCUCCAAA | < 1e-05 | < 1e-05 |  |
| AUAAAAGCGCUAGAACUACAGAAAUGUAGUUGACGAGGAGGAGGUUUAUCGAAUUUUAGGCUGAUGCCUCCAAA | < 1e-05 |  |  |
| AUAAAAGCGCUAGAACUACAGAAAUGUAGUUUCCGAGGAGGAGGUUUAUCGAAUUUUCGGCGGAUGCCUCCAAA | < 1e-05 | < 1e-05 |  |
| AUAAAAGCGCUAGAACUACAGAAAUGUAGUUGACGAGGAGGAGGUUUAUCGAAUUUUCGGCUGAUGCCUCCAAA | < 1e-05 |  | < 1e-05 |
| AUAAAAGCGCGAGAACUACAGAAAUGUAGUUGACGAGGCGGAGGUUUAUCGAAUUUUCGGCGGAUGGCUCCAAA | < 1e-05 | < 1e-05 |  |

| Variant | self-cleavage kobs at 640 uM GlcN6P (glucosamine-6-phosphate [1]) [s⁻¹] | self-cleavage kobs at 2500 uM GlcN6P (glucosamine-6-phosphate [2]) [s⁻¹] | self-cleavage kobs at 10000 uM GlcN6P (glucosamine-6-phosphate [3]) [s⁻¹] |
| --- | --- | --- | --- |
| AUAAAAGCGCGAGAACUACAGAAAUGUAGUUGACGAGGAGGAGGUUUAUCGAAUUUUCGGCGGUUGCCUCCAAA | < 1e-05 | < 1e-05 |  |
| AUAAAAGCGCUAGAACUACAGAAAUGUAGGUGACGAGGAGGAGGUUUAUCGAAUUUACGGUGGAUGCCUCCAAA | < 1e-05 |  |  |
| AUAAAAGCGCUAGAACUACAGAAAUGUAGUCGACCUGGAGGAGGUUUAUCGAAUUUUCGGCGGAUGCCUCCAAA | < 1e-05 | < 1e-05 |  |
| AUAAAAGCGCGAGAACUACAGAAAUGUAGUUGACGAGGAGGAGAUUUAUCGAAUAUUCGGCGGAUGCCUCCAAA | < 1e-05 | < 1e-05 |  |
| AUAAAAGCGCUAGAACUACAGAAAUGUAGUAGACGAGGAGGAGGUUUAUCGAUUUUUCGGCGGAUGCCUGCAAA | 0.000209 ± 6.9e-05 | 0.000251 ± 8.4e-05 |  |
| AUAAAAGCGCUAGAACUACAGAAAUGUAGUUCACGAGGAGGAGGUUCAUAGAAUUUUCGGCGGAUGCCUCCAAA | < 1e-05 |  |  |
| AUAAAAGCGCCCGACCUACAGAAAUGUAGGUGACGAGGAGGAGGUUUAGCGAAUUUUCAGCGGGUGCCUCCAAA | < 1e-05 | < 1e-05 |  |
| AUAAAAGCGCUAGACCUACAGAAAUGUACUUUACGAGGAGGAGGUUUAUGGAAUUUUCGGCGGAUGCCUCCAAA | 0.000512 ± 0.00014 | 0.000149 ± 3.9e-05 |  |
| AUAAAAGCGCGAGAACUACAGAAAUGUAGUUGACGAGGAGGAGGUUUACCGAAUUUUCGGCGGAUGCGCCCAAA | < 1e-05 |  |  |
| AUAAAAGCGCGAGAACUACAGAAAUGUAGUUGACGACGAGGAGGUUUAUCGAAUUUUCGGCGGAUGCUUCCAAA | 9.13e-05 ± 3.1e-05 |  |  |
| AUAAAAGCGCGAGAACUACAGAAAUGUAGUUGUCGAGGAGGAGGUUUAUCGAAAUUUCGGCGGAGGCCUCCAAA | < 1e-05 |  |  |
| AUAAAAGCGCUAGAUCUACAGAAAUGUAGUUGACGAGUAGUAGGUUUAUCGAAUUUACGGCGGAUGCCUCCAAA | < 1e-05 | < 1e-05 |  |
| AUAAAAGCGCUAGAACUACAGAAAUGUACUAGAAGAGGAGGAGGUUUAUCGCAUUUUCGUCGGAUGCCUCCAAA | < 1e-05 | < 1e-05 |  |
| AUAAAAGCGCGAGAACUACAGAAAUGUAGUUGACGAGGAGGAGGCUUAUGGAAUUUUCGGCGGAUGCCUCCAAA | < 1e-05 | < 1e-05 |  |
| AUAAAAGCGCUAGAACUACAGAAAUGUAGUUGACGAGGAGGAAGUAUAUCGAAUGUUCGGCGGAGACCUCCAAA | < 1e-05 | < 1e-05 |  |
| AUAAAAGCGCGAGAAAUACAGAAAUGUAGUCGACGAGGAGGUGGUUUAUCGAAUUUUCGGCGGAUGCCUCCAAA | < 1e-05 |  |  |
| AUAAAAGCGCUCUAACUACAGAAAUGUAGUUGACGAGUAGGAGGUUUAUCGAAUUAUCGGCGGAUGCCUCUAAA | < 1e-05 | < 1e-05 |  |
| AUAAAAGCGCGAGAACUACAGAAAUGUAGUUGACGAGGAGGAGGUUUAUGGAAUUUUCGGUGGAUGCCUCCAAA | 7.22e-05 ± 3.5e-05 | 6.44e-05 ± 2.1e-05 |  |
| AUAAAAGCGCGAGAACUACAGAAAUGUAGUUGACGAGGAGGAGGUUUAACGAAUUUUCGGCGGAUGCCUCGAAA | 8.96e-05 ± 3.1e-05 |  |  |
| AUAAAAGCGCGAGAAAUACAGAAAUGUAGUUGACGAGGAGGAUGUUUAUCGAAUUUUCGGCGGAUGCCUCCAAA | < 1e-05 |  |  |
| AUAAAAGCGCCCGAACUACAGAAAUGUAGUUGACGAGGAGGUGGUUUAUCGAAUUUUCGGCGGAUGCUUCCAAA | 5.31e-05 ± 1.5e-05 | 0.000111 ± 2.6e-05 |  |
| AUAAAAGCGCGAGAACUACAGAAAUGUAGUUGACGAGGAGGAGGUUUAUCGACUUUUCUGCGGAUGCCACCAAA | < 1e-05 |  |  |
